T1: FcγRIIb extracellular domain with C-terminal His tag (human, UniProt P31994 43-217)
T1 construct: extracellular domain; also called 2b; FcgRIIb
T1 sequence (looked up): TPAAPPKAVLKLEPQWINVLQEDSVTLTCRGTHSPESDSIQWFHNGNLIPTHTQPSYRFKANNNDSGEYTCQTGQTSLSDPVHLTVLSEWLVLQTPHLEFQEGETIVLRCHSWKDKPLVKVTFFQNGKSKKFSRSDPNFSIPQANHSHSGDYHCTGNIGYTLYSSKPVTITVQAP

T2: FcγRIIa H (FcgRIIa type H, His at position 131), extracellular domain with C-terminal His tag (human, UniProt P12318 34-217)
T2 construct: extracellular domain; also called 2aH; FcgRIIa H; not shown: His tag at the C terminus
T2 sequence (looked up): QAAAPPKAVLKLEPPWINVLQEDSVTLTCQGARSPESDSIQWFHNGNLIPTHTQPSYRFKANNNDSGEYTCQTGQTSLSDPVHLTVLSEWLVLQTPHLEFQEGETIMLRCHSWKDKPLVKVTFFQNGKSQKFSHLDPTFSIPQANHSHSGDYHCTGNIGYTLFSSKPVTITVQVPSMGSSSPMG

T3: FcγRIIb, extracellular domain with C-terminal His tag (human, UniProt P31994 43-217)
T3 construct: extracellular domain; also called 2b; FcgRIIb; not shown: His tag at the C terminus
T3 sequence (looked up): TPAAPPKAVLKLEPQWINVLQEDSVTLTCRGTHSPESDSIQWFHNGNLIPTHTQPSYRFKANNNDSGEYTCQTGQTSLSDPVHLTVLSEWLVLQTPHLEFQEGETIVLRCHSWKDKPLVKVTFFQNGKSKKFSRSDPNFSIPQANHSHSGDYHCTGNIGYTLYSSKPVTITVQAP


Assays:
[1] = molecular target: T4, FcγRIIIa extracellular domain with C-terminal His tag (human, UniProt P08637 17-208); test: SPR, binding relative to GpH7-A5/GpH7-B3/GpL16-k0 = 100
T4 construct: extracellular domain; also called 3a; FcgRIIIa

[2] = molecular target: T1, FcγRIIb extracellular domain with …; test: as above
[3] = molecular target: T2, FcγRIIa H (FcgRIIa type H, His at …); test: SPR (Biacore), relative binding, GpH7-A5/GpH7-B3/GpL16-k0 = 100
[4] = molecular target: T3, FcγRIIb, extracellular domain with …; test: as above

T4 sequence (P08637 17-208): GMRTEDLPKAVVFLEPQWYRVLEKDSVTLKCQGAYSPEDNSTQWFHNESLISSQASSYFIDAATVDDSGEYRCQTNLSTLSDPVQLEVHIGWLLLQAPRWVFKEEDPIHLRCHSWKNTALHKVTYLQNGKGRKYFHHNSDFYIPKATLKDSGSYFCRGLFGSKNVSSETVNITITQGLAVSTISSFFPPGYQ

Row | Binder | He/Con_3a [1] | He/Con_2b [2] | He/Con_2aH [3] | He/Con_2b [4]
1 | GpH7-A5/GpH7-B3 variant A327_18N/GpL16-k0 (antibody, human IgG1, kappa, He Ab; alteration in one H chain only; also called He Ab) heavy 1: not shown heavy 2: not shown light: DIVMTQSPLSLPVTPGEPASISCQASESLVHSNRNTYLHWYLQKPGQSPQLLIYKVSNRFSGVPDRFSGSGSGTDFTLKISRVEAEDVGVYYCSQNTHVPPTFGQGTKVEIERTVAAPSVFIFPPSDEQLKSGTASVVCLLNNFYPREAKVQWKVDNALQSGNSQESVTEQDSKDSTYSLSSTLTLSKADYEKHKVYACEVTHQGLSSPVTKSFNRGEC |  |  | 66.8 % of control | 113 % of control
2 | GpH7-A5/GpH7-B3 variant A330_01G/GpL16-k0 (antibody, human IgG1, kappa, He Ab; alteration in one H chain only; also called He Ab) heavy 1: not shown heavy 2: not shown light: DIVMTQSPLSLPVTPGEPASISCQASESLVHSNRNTYLHWYLQKPGQSPQLLIYKVSNRFSGVPDRFSGSGSGTDFTLKISRVEAEDVGVYYCSQNTHVPPTFGQGTKVEIERTVAAPSVFIFPPSDEQLKSGTASVVCLLNNFYPREAKVQWKVDNALQSGNSQESVTEQDSKDSTYSLSSTLTLSKADYEKHKVYACEVTHQGLSSPVTKSFNRGEC |  |  | 99 % of control | 104 % of control
3 | GpH7-A5/GpH7-B3 variant A330_05P/GpL16-k0 (antibody, human IgG1, kappa, He Ab; alteration in one H chain only; also called He Ab) heavy 1: not shown heavy 2: not shown light: DIVMTQSPLSLPVTPGEPASISCQASESLVHSNRNTYLHWYLQKPGQSPQLLIYKVSNRFSGVPDRFSGSGSGTDFTLKISRVEAEDVGVYYCSQNTHVPPTFGQGTKVEIERTVAAPSVFIFPPSDEQLKSGTASVVCLLNNFYPREAKVQWKVDNALQSGNSQESVTEQDSKDSTYSLSSTLTLSKADYEKHKVYACEVTHQGLSSPVTKSFNRGEC |  |  | 85.7 % of control | 137 % of control
4 | GpH7-A5/GpH7-B3 variant A327_07I/GpL16-k0 (antibody, human IgG1, kappa, He Ab; alteration in one H chain only; also called He Ab) heavy 1: not shown heavy 2: not shown light: DIVMTQSPLSLPVTPGEPASISCQASESLVHSNRNTYLHWYLQKPGQSPQLLIYKVSNRFSGVPDRFSGSGSGTDFTLKISRVEAEDVGVYYCSQNTHVPPTFGQGTKVEIERTVAAPSVFIFPPSDEQLKSGTASVVCLLNNFYPREAKVQWKVDNALQSGNSQESVTEQDSKDSTYSLSSTLTLSKADYEKHKVYACEVTHQGLSSPVTKSFNRGEC |  |  | 58.4 % of control | 127 % of control
5 | GpH7-A5/GpH7-B3 variant K326_15Y/GpL16-k0 (antibody, human IgG1, kappa, He Ab; alteration in one H chain only; also called He Ab) heavy 1: not shown heavy 2: not shown light: DIVMTQSPLSLPVTPGEPASISCQASESLVHSNRNTYLHWYLQKPGQSPQLLIYKVSNRFSGVPDRFSGSGSGTDFTLKISRVEAEDVGVYYCSQNTHVPPTFGQGTKVEIERTVAAPSVFIFPPSDEQLKSGTASVVCLLNNFYPREAKVQWKVDNALQSGNSQESVTEQDSKDSTYSLSSTLTLSKADYEKHKVYACEVTHQGLSSPVTKSFNRGEC |  |  | 98.3 % of control | 159 % of control

Results, then the binder that gave them:

Row | He/Con_3a [1] | He/Con_2b [2] | He/Con_2aH [3] | He/Con_2b [4] | Binder
6 | 103 % of control | 88.4 % of control |  |  | GpH7-A5/GpH7-B3 variant S324_14T/GpL16-k0 (antibody, human IgG1, kappa, also called He Ab) heavy 1: not shown heavy 2: not shown light: DIVMTQSPLSLPVTPGEPASISCQASESLVHSNRNTYLHWYLQKPGQSPQLLIYKVSNRFSGVPDRFSGSGSGTDFTLKISRVEAEDVGVYYCSQNTHVPPTFGQGTKVEIERTVAAPSVFIFPPSDEQLKSGTASVVCLLNNFYPREAKVQWKVDNALQSGNSQESVTEQDSKDSTYSLSSTLTLSKADYEKHKVYACEVTHQGLSSPVTKSFNRGEC
7 | 102 % of control | 87.5 % of control |  |  | GpH7-A5/GpH7-B3 variant S324_20W/GpL16-k0 (antibody, human IgG1, kappa, also called He Ab) heavy 1: not shown heavy 2: not shown light: DIVMTQSPLSLPVTPGEPASISCQASESLVHSNRNTYLHWYLQKPGQSPQLLIYKVSNRFSGVPDRFSGSGSGTDFTLKISRVEAEDVGVYYCSQNTHVPPTFGQGTKVEIERTVAAPSVFIFPPSDEQLKSGTASVVCLLNNFYPREAKVQWKVDNALQSGNSQESVTEQDSKDSTYSLSSTLTLSKADYEKHKVYACEVTHQGLSSPVTKSFNRGEC
8 | 101 % of control | 88.2 % of control |  |  | GpH7-A5/GpH7-B3 variant S324_15Y/GpL16-k0 (antibody, human IgG1, kappa, also called He Ab) heavy 1: not shown heavy 2: not shown light: DIVMTQSPLSLPVTPGEPASISCQASESLVHSNRNTYLHWYLQKPGQSPQLLIYKVSNRFSGVPDRFSGSGSGTDFTLKISRVEAEDVGVYYCSQNTHVPPTFGQGTKVEIERTVAAPSVFIFPPSDEQLKSGTASVVCLLNNFYPREAKVQWKVDNALQSGNSQESVTEQDSKDSTYSLSSTLTLSKADYEKHKVYACEVTHQGLSSPVTKSFNRGEC
9 | 105 % of control | 73.6 % of control |  |  | GpH7-A5/GpH7-B3 variant Y300_08L/GpL16-k0 (antibody, human IgG1, kappa, also called He Ab) heavy 1: not shown heavy 2: not shown light: DIVMTQSPLSLPVTPGEPASISCQASESLVHSNRNTYLHWYLQKPGQSPQLLIYKVSNRFSGVPDRFSGSGSGTDFTLKISRVEAEDVGVYYCSQNTHVPPTFGQGTKVEIERTVAAPSVFIFPPSDEQLKSGTASVVCLLNNFYPREAKVQWKVDNALQSGNSQESVTEQDSKDSTYSLSSTLTLSKADYEKHKVYACEVTHQGLSSPVTKSFNRGEC
